Data reported in US20080182978A1, “ANTI-NGF ANTIBODIES AND METHODS USING SAME” (RINAT NEUROSCIENCE CORP, priority 2002, published 2008).

Test: Dose response of E3 on body weight in arthritic rats (Example 9)
Type: in vivo, rat
Protocol: The ability of E3 to produce reduction in pain in arthritic rats was further investigated by examining the dose response relationship between E3 administration and pain reduction. Rats were treated with adjuvant to induce arthritis as described above. Ten rats not injected with adjuvant were used as non-arthritic controls. Fourteen days after adjuvant injection, animals were qualified into the study based on the criteria stated above, randomized into eight groups of ten rats and tested for the intensity of their vocalization response. They were then dosed on day 14 with saline, or 0.003 mg/kg, 0.01 mg/kg, 0.03 mg/kg, 0.1 mg/kg, 0.3 mg/kg, 1 mg/kg or 5 mg/kg of E3 antibody as described above. Animals were tested for their vocalization response on days 16, 18, 20, and 24. Animals were redosed with saline or the same dose of E3 on day 18 after the vocalization testing. Animals were also weighed each day, starting at day 14. Thus, animals were dosed twice with a given dose of antibody or saline on days 14 and 18, and assessed for pain five times, on days 14, 16, 18, 20 and 24. Data are shown in Tables 20-22 and in FIGS. 20-22.
The effect of treating animals with various doses of anti-NGF antibody E3 on body weight was statistically analyzed by using two-way ANOVA to compare the results obtained pairwise between arthritic animals treated with vehicle with those treated with a given dose of antibody E3. […] At all higher dose of E3, the difference between treated and untreated arthritic animals was significant (p= or <0.0001). […]

[1] = E3 0.003 mg/kg on days 14+18, day 14
[2] = E3 0.003 mg/kg on days 14+18, day 15
[3] = E3 0.003 mg/kg on days 14+18, day 16
[4] = E3 0.003 mg/kg on days 14+18, day 17
[5] = E3 0.003 mg/kg on days 14+18, day 18
[6] = E3 0.003 mg/kg on days 14+18, day 20
[7] = E3 0.003 mg/kg on days 14+18, day 21
[8] = E3 0.003 mg/kg on days 14+18, day 23
[9] = E3 0.003 mg/kg on days 14+18, day 24
[10] = E3 0.01 mg/kg on days 14+18, day 14
[11] = E3 0.01 mg/kg on days 14+18, day 15
[12] = E3 0.01 mg/kg on days 14+18, day 16
[13] = E3 0.01 mg/kg on days 14+18, day 17
[14] = E3 0.01 mg/kg on days 14+18, day 18
[15] = E3 0.01 mg/kg on days 14+18, day 20
[16] = E3 0.01 mg/kg on days 14+18, day 21
[17] = E3 0.01 mg/kg on days 14+18, day 23
[18] = E3 0.01 mg/kg on days 14+18, day 24
[19] = E3 0.03 mg/kg on days 14+18, day 14
[20] = E3 0.03 mg/kg on days 14+18, day 15
[21] = E3 0.03 mg/kg on days 14+18, day 16
[22] = E3 0.03 mg/kg on days 14+18, day 17
[23] = E3 0.03 mg/kg on days 14+18, day 18
[24] = E3 0.03 mg/kg on days 14+18, day 20
[25] = E3 0.03 mg/kg on days 14+18, day 21
[26] = E3 0.03 mg/kg on days 14+18, day 23
[27] = E3 0.03 mg/kg on days 14+18, day 24
[28] = E3 0.1 mg/kg on days 14+18, day 14
[29] = E3 0.1 mg/kg on days 14+18, day 15

B1: E3: humanized, affinity matured anti-NGF antagonist antibody; variable regions SEQ ID NO:1 and 2; human IgG2a (A330P331 to S330S331), kappa (antibody, V domains shown)
VH: QVQLQESGPGLVKPSETLSLTCTVSGFSLIGYDLNWIRQPPGKGLEWIGIIWGDGTTDYNSAVKSRVTISKDTSKNQFSLKLSSVTAADTAVYYCARGGYWYATSYYFDYWGQGTLVTVS
VL: DIQMTQSPSSLSASVGDRVTITCRASQSISNNLNWYQQKPGKAPKLLIYYTSRFHSGVPSRFSGSGSGTDFTFTISSLQPEDIATYYCQQEHTLPYTFGQGTKLEIKRT
modifications: human IgG2a constant (A330S/P331S) and kappa constant missing
Body weight normalized to day 0 (E3 0.003 mg/kg on days 14+18, day 0): 100.00
Body weight normalized to day 0 (E3 0.003 mg/kg on days 14+18, day 1): 98.37
Body weight normalized to day 0 (E3 0.003 mg/kg on days 14+18, day 2): 102.47
Body weight normalized to day 0 (E3 0.003 mg/kg on days 14+18, day 3): 106.54
Body weight normalized to day 0 (E3 0.003 mg/kg on days 14+18, day 4): 110.09
Body weight normalized to day 0 (E3 0.003 mg/kg on days 14+18, day 7): 121.29
Body weight normalized to day 0 (E3 0.003 mg/kg on days 14+18, day 8): 124.44
Body weight normalized to day 0 (E3 0.003 mg/kg on days 14+18, day 9): 125.91
Body weight normalized to day 0 (E3 0.003 mg/kg on days 14+18, day 10): 123.30
Body weight normalized to day 0 (E3 0.003 mg/kg on days 14+18, day 11): 119.55
Body weight normalized to day 0 [1]: 111.50
Body weight normalized to day 14 [1]: 100.00
Body weight normalized to day 0 [2]: 110.63
Body weight normalized to day 14 [2]: 99.20
Body weight normalized to day 0 [3]: 111.08
Body weight normalized to day 14 [3]: 99.58
Body weight normalized to day 0 [4]: 112.06
Body weight normalized to day 14 [4]: 100.46
Body weight normalized to day 0 [5]: 112.60
Body weight normalized to day 14 [5]: 100.90
Body weight normalized to day 0 [6]: 114.17
Body weight normalized to day 14 [6]: 102.26
Body weight normalized to day 0 [7]: 115.25
Body weight normalized to day 14 [7]: 103.16
Body weight normalized to day 0 [8]: 118.48
Body weight normalized to day 14 [8]: 106.09
Body weight normalized to day 0 [9]: 118.58
Body weight normalized to day 14 [9]: 106.16
Body weight normalized to day 0 (E3 0.01 mg/kg on days 14+18, day 0): 100.00
Body weight normalized to day 0 (E3 0.01 mg/kg on days 14+18, day 1): 98.86
Body weight normalized to day 0 (E3 0.01 mg/kg on days 14+18, day 2): 102.61
Body weight normalized to day 0 (E3 0.01 mg/kg on days 14+18, day 3): 106.29
Body weight normalized to day 0 (E3 0.01 mg/kg on days 14+18, day 4): 110.61
Body weight normalized to day 0 (E3 0.01 mg/kg on days 14+18, day 7): 121.59
Body weight normalized to day 0 (E3 0.01 mg/kg on days 14+18, day 8): 124.47
Body weight normalized to day 0 (E3 0.01 mg/kg on days 14+18, day 9): 125.82
Body weight normalized to day 0 (E3 0.01 mg/kg on days 14+18, day 10): 123.87
Body weight normalized to day 0 (E3 0.01 mg/kg on days 14+18, day 11): 121.20
Body weight normalized to day 0 [10]: 111.80
Body weight normalized to day 14 [10]: 100.00
Body weight normalized to day 0 [11]: 110.85
Body weight normalized to day 14 [11]: 99.18
Body weight normalized to day 0 [12]: 110.98
Body weight normalized to day 14 [12]: 99.33
Body weight normalized to day 0 [13]: 111.42
Body weight normalized to day 14 [13]: 99.69
Body weight normalized to day 0 [14]: 112.54
Body weight normalized to day 14 [14]: 100.69
Body weight normalized to day 0 [15]: 114.82
Body weight normalized to day 14 [15]: 102.70
Body weight normalized to day 0 [16]: 114.76
Body weight normalized to day 14 [16]: 102.63
Body weight normalized to day 0 [17]: 116.76
Body weight normalized to day 14 [17]: 104.41
Body weight normalized to day 0 [18]: 116.56
Body weight normalized to day 14 [18]: 104.23
Body weight normalized to day 0 (E3 0.03 mg/kg on days 14+18, day 0): 100.00
Body weight normalized to day 0 (E3 0.03 mg/kg on days 14+18, day 1): 98.67
Body weight normalized to day 0 (E3 0.03 mg/kg on days 14+18, day 2): 102.05
Body weight normalized to day 0 (E3 0.03 mg/kg on days 14+18, day 3): 105.31
Body weight normalized to day 0 (E3 0.03 mg/kg on days 14+18, day 4): 109.24
Body weight normalized to day 0 (E3 0.03 mg/kg on days 14+18, day 7): 117.15
Body weight normalized to day 0 (E3 0.03 mg/kg on days 14+18, day 8): 118.52
Body weight normalized to day 0 (E3 0.03 mg/kg on days 14+18, day 9): 118.60
Body weight normalized to day 0 (E3 0.03 mg/kg on days 14+18, day 10): 115.26
Body weight normalized to day 0 (E3 0.03 mg/kg on days 14+18, day 11): 112.94
Body weight normalized to day 0 [19]: 108.37
Body weight normalized to day 14 [19]: 100.00
Body weight normalized to day 0 [20]: 108.68
Body weight normalized to day 14 [20]: 100.34
Body weight normalized to day 0 [21]: 109.21
Body weight normalized to day 14 [21]: 100.89
Body weight normalized to day 0 [22]: 110.16
Body weight normalized to day 14 [22]: 101.80
Body weight normalized to day 0 [23]: 111.14
Body weight normalized to day 14 [23]: 102.70
Body weight normalized to day 0 [24]: 113.17
Body weight normalized to day 14 [24]: 104.51
Body weight normalized to day 0 [25]: 113.80
Body weight normalized to day 14 [25]: 105.08
Body weight normalized to day 0 [26]: 114.93
Body weight normalized to day 14 [26]: 106.14
Body weight normalized to day 0 [27]: 114.99
Body weight normalized to day 14 [27]: 106.23
Body weight normalized to day 0 (E3 0.1 mg/kg on days 14+18, day 0): 100.00
Body weight normalized to day 0 (E3 0.1 mg/kg on days 14+18, day 1): 99.31
Body weight normalized to day 0 (E3 0.1 mg/kg on days 14+18, day 2): 102.87
Body weight normalized to day 0 (E3 0.1 mg/kg on days 14+18, day 3): 106.26
Body weight normalized to day 0 (E3 0.1 mg/kg on days 14+18, day 4): 110.20
Body weight normalized to day 0 (E3 0.1 mg/kg on days 14+18, day 7): 120.50
Body weight normalized to day 0 (E3 0.1 mg/kg on days 14+18, day 8): 123.48
Body weight normalized to day 0 (E3 0.1 mg/kg on days 14+18, day 9): 125.46
Body weight normalized to day 0 (E3 0.1 mg/kg on days 14+18, day 10): 123.95
Body weight normalized to day 0 (E3 0.1 mg/kg on days 14+18, day 11): 121.98
Body weight normalized to day 0 [28]: 113.90
Body weight normalized to day 14 [28]: 100.00
Body weight normalized to day 0 [29]: 113.66
Body weight normalized to day 14 [29]: 99.83
Body weight normalized to day 0 (E3 0.1 mg/kg on days 14+18, day 16): 115.06
